Laboratory results taken from patent US20050282743A1 (ARBOR VITA, published 2005).

Tests used:
[1] = target: HPV E6 #66 (cysteine-free) (HPV strain 66); experiment: G assay titration, PDZ 1 ug/ml
[2] = target: HPV E6 #66 (cysteine-free) (HPV strain 66); experiment: G assay titration, PDZ 0.5 ug/ml
[3] = target: HPV E6 #57 (cysteine-free) (HPV strain 57); experiment: G' assay; Classification 0 = A450 nm 0, not found to interact
HPV E6 77 (modified) = target: T1, HPV E6 77 (modified) (HPV strain 77); experiment: as above
T1 construct: also called AA78.1

[4] = target: HPV E6 #35 (cysteine-free) (HPV strain 35); experiment: G assay titration, PDZ 0.5 ug/ml
[5] = target: HPV E6 #66 (cysteine-free) (HPV strain 66); experiment: G assay titration, PDZ 5 ug/ml
HPV E6 33 (modified) = target: T2, HPV E6 33 (modified) (HPV strain 33); experiment: G assay titration, PDZ 0.5 ug/ml
T2 construct: also called AA72.1

HPV E6 58 (modified) [6] = target: T3, HPV E6 58 (modified) (HPV strain 58); experiment: G assay titration, PDZ 0.5 ug/ml
T3 construct: also called AA75.1

HPV E6 58 (modified) [7] = target: T3, HPV E6 58 (modified); experiment: G assay titration, PDZ 5 ug/ml
HPV E6 58 (modified) [8] = target: T3, HPV E6 58 (modified); experiment: G assay titration, PDZ 3 ug/ml
[9] = target: HPV E6 #35 (cysteine-free) (HPV strain 35); experiment: G assay titration, PDZ 5 ug/ml

B1: GST-TIP1 PDZ domain 1 (Table 9 insert) (other, not shown: a dimerising Fc or GST)
chain: QRVEIHKLRQGENLILGFSIGGGIDQDPSQNPFSEDKTDKGIYVTRVSEGGPAEIAGLQIGDKIMQVNGWDMTMVTHDQARKRLTKRSEEVVRLLVTRQSLQK
notes: also called TIP-1 1/1
With B1 the Kd [1] was 5 µM.

B2: GST-NeDLG PDZ domains 1, 2 (other, not shown: a dimerising Fc or GST)
chain: YEEIVLERGNSGLGFSIAGGIDNPHVPDDPGIFITKIIPGGAAAMDGRLGVNDCVLRVNEVDVSEVVHSRAVEALKEAGPVVRLVVRRRQPPPETIMEVNLLKGPKGLGFSIAGGIGNQHIPGDNSIYITKIIEGGAAQKDGRLQIGDRLLAVNNTNLQDVRHEEAVASLKNTSDMVYLKVAKPGSL
notes: domain: PDZ domains 1-2; also called NeDLG 1, 2
Binder B2 has a Kd [2] of 1 µM.

B3: GST-NeDLG PDZ domain 2 (other, not shown: a dimerising Fc or GST)
chain: ITLLKGPKGLGFSIAGGIGNQHIPGDNSIYITKIIEGGAAQKDGRLQIGDRLLAVNNTNLQDVRHEEAVASLKNTSDMVYLKVAKPGSLE
With B3 the Kd [2] was 3.5 µM.

B4: GST-BAI-1 Associated Protein PDZ domain 2 (other, not shown: a dimerising Fc or GST)
chain: PSELKGKFIHTKLRKSSRGFGFTVVGGDEPDEFLQIKSLVLDGPAALDGKMETGDVIVSVNDTCVLGHTHAQVVKIFQSIPIGASVDLELCRGYPLPFDPDDPN
notes: also called BAI-1 (2/6)
With B4 the binding result [3] was “no binding (tested: 10 uM peptide)”, the binding result (HPV E6 77 (modified)) was “no binding (tested: 10 uM peptide)” and the Kd [2] was 3 µM.

B5: GST-KIAA0807(S) PDZ domain 1 (other, not shown: a dimerising Fc or GST)
chain: ISALGSMRPPIIIHRAGKKYGFTLRAIRVYMGDSDVYTVHHMVWHVEDGGPASEAGLRQGDLITHVNGEPVHGLVHTEVVELILKSGNKVAISTTPLENSS
B5 was tested, and the Kd [4] was 0.1 µM and the Kd [5] was 5 µM.

B6: GST-PSD95 PDZ domain 3 (other, not shown: a dimerising Fc or GST)
chain: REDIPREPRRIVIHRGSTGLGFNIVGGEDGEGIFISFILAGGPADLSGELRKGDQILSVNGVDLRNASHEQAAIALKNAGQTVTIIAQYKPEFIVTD
Binder B6 has a Kd (HPV E6 33 (modified)) of 5 µM.

B7: GST-KIAA1095 PDZ domain 1 (other, not shown: a dimerising Fc or GST)
chain: QGEETKSLTLVLHRDSGSLGFNIIGGRPSVDNHDGSSSEGIFVSKIVDSGPAAKEGGLQIHDRIIEVNGRDLSRATHDQAVEAFKTAKEPIVVQVLRRTPRTKMFTP
Binder B7 has a Kd (HPV E6 33 (modified)) of 5 µM.

B8: GST-DLG1 PDZ domain 2 (other, not shown: a dimerising Fc or GST)
chain: IQLIKGPKGLGFSIAGGVGNQHIPGDNSIYVTKIIEGGAAHKDGKLQIGDKLLAVNNVCLEEVTHEEAVTALKNTSDFVYLKVAKPTSMYMNDGN
Binder B8 has a Kd (HPV E6 33 (modified)) of 5 µM.

B9: GST-Atrophin-1 Interacting Protein PDZ domain 1 (other, not shown: a dimerising Fc or GST)
chain: REKPLFTRDASQLKGTFLSTTLKKSNMGFGFTIIGGDEPDEFLQVKSVIPDGPAAQDGKMETGDVIVYINEVCVLGHTHADVVKLFQSVPIGQSVNLVLCRGYP
notes: also called Atrophin-1 Inter; Prot; Atr-P (1/6)
For B9, the Kd (HPV E6 33 (modified)) was 5 µM.

B10: GST-Outer Membrane PDZ domain 1 (other, not shown: a dimerising Fc or GST)
chain: LLTEEEINLTRGPSGLGFNIVGGTDQQYVSNDSGIYVSRIKENGAAALDGRLQEGDKILSVNGQDLKNLLHQDAVDLFRNAGYAVSLRVQHRLQVQNGIHS
B10 showed a Kd (HPV E6 58 (modified) [6]) of 5 µM.

B11: GST-NeDLG PDZ domain 3 (other, not shown: a dimerising Fc or GST)
chain: ILLHKGSTGLGFNIVGGEDGEGIFVSFILAGGPADLSGELRRGDRILSVNGVNLRNATHEQAAAALKRAGQSVTIVAQYRPEEYSRFESKIHDLREQMMNSSMSSGSGSLRTSEKRSLE
With B11 the Kd (HPV E6 58 (modified) [7]) was 5 µM.

B12: GST-MUPP1 PDZ domain 10 (other, not shown: a dimerising Fc or GST)
chain: LPGCETTIEISKGRTGLGLSIVGGSDTLLGAIIIHEVYEEGAACKDGRLWAGDQILEVNGIDLRKATHDEAINVLRQTPQRVRLTLYRDEAPYKE
With B12 the Kd (HPV E6 58 (modified) [8]) was 5 µM.

B13: GST-KIAA0147 PDZ domain 3 (other, not shown: a dimerising Fc or GST)
chain: ILEGPYPVEEIRLPRAGGPLGLSIVGGSDHSSHPFGVQEPGVFISKVLPRGLAARSGLRVGDRILAVNGQDVRDATHQEAVSALLRPCLELSLLVRRDPAEFIVTD
B13 gave a Kd [9] of 0.35 µM.

B14: GST-FLJ00011 PDZ domain 1 (other, not shown: a dimerising Fc or GST)
chain: KNPSGELKTVTLSKMKQSLGISISGGIESKVQPMVKIEKIFPGGAAFLSGALQAGFELVAVDGENLEQVTHQRAVDTIRRAYRNKAREPMELVVRVPGPSPRPSPSD
B14 was tested, and the Kd [9] was 0.35 µM.

B15: GST-ERBIN PDZ domain 1 (other, not shown: a dimerising Fc or GST)
chain: QGHELAKQEIRVRVEKDPELGFSISGGVGGRGNPFRPDDDGIFVTRVQPEGPASKLLQPGDKIIQANGYSFINIEHGQAVSLLKTFQNTVELIIVREVSS
For B15, the Kd [9] was 0.4 µM.

B16: GST-DLG2 PDZ domain 2 (other, not shown: a dimerising Fc or GST)
chain: ISVVEIKLFKGPKGLGFSIAGGVGNQHIPGDNSIYVTKIIDGGAAQKDGRLQVGDRLLMVNNYSLEEVTHEEAVAILKNTSEVVYLKVGNPTTI
For B16, the Kd [4] was 0.2 µM.

B17: GST-KIAA1526 PDZ domain 1 (other, not shown: a dimerising Fc or GST)
chain: PDSAGPGEVRLVSLRRAKAHEGLGFSIRGGSEHGVGIYVSLVEPGSLAEKEGLRVGDQILRVNDKSLARVTHAEAVKALKGSKKLVLSVYSAGRIPGGYVTNH
B17 showed a Kd [9] of 1 µM.

B18: GST-Atrophin-1 Interacting Protein PDZ domain 2 (other)
chain: LSGATQAELMTLTIVKGAQGFGFTIADSPTGQRVKQILDIQGCPGLCEGDLIVEINQQNVQNLSHTEVVDILKDCPIGSETSLIIHRGGFF
B18 showed a Kd [9] of 0.8 µM.
